The conditions of this data set: whole UniProt chain shown.
Where [1] appears, read: Nitratidesulfovibrio vulgaris (strain DSM 19637 / Miyazaki F), pH 7, 20 °C, GdnHCl, CD, phosphate 0.1 M, reversible: yes.
[2] abbreviates: Phaseolus vulgaris, pH 7, 25 °C, GdnHCl, CD, Potassium phosphate 50 mM, Na2SO4 0.5 M, reversible: yes.
Where [3] appears, read: Phaseolus vulgaris, pH 7, 25 °C, GdnHCl, Fluorescence, Potassium phosphate 50 mM, Na2SO4 0.5 M, reversible: yes.
[4] abbreviates: Momordica charantia, pH 7.5, 25 °C, GdnHCl, fluorescence, Tris-HCl 10 mM, NaCl 200 mM.
Setting [5] is: Oryctolagus cuniculus, pH 7.4, Thermal, DSC, sodium phosphate 50 mM, reversible: yes.
Setting [6] is: Mus musculus, pH 2, Thermal, DSC, Potassium phosphate 40 mM, reversible: yes.
Where [7] appears, read: Mus musculus, pH 2.7, Thermal, DSC, Potassium phosphate 40 mM, reversible: yes.
Setting [8] is: Mus musculus, pH 7, Thermal, DSC, Potassium phosphate 40 mM, reversible: yes.
Setting [9] is: Pseudomonas aeruginosa (strain ATCC 15692 / DSM 22644 / CIP 104116 / JCM 14847 / LMG 12228 / 1C / PRS 101 / PAO1), pH 7, 20 °C, GdnHCl, CD, phosphate 5 mM, reversible: yes.
The mark [10] stands for this setting: Pseudomonas aeruginosa (strain ATCC 15692 / DSM 22644 / CIP 104116 / JCM 14847 / LMG 12228 / 1C / PRS 101 / PAO1), pH 8, Thermal, DSC, Tris-HCl 10 mM, NaCl 200 mM, reversible: yes.

“And” between values parts separate entries of the source, which are not always exact repeats. Identical values can stand only once.

As a reminder, the Tm is the temperature at the midpoint of the melting transition.

B1: Cytochrome c-553 wild type, P00120 (protein)
chain: MKRILVVMSICAALAFGVSAAMAADGAALYKSCVGCHGADGSKQAMGVGHAVKGQKADELFKKLKGYADGSYGGEKKAVMTNLVKRYSDEEMKAMADYMSKL
In the case of B1, under setting [1], the denaturant m value is 2.49 kcal/mol/M and 2.75 kcal/mol/M; the “denaturant midpoint (higher = more stable)” value (from here on “denaturant midpoint”) is 3.65 M and 3.91 M; the unfolding free energy was 9.08 kcal/mol and 10.8 kcal/mol.

B2: Harpin HrpZ wild type, P35674 (protein)
chain: MQSLSLNSSSLQTPAMALVLVRPEAETTGSTSSKALQEVVVKLAEELMRNGQLDDSSPLGKLLAKSMAADGKAGGGIEDVIAALDKLIHEKLGDNFGASADSASGTGQQDLMTQVLNGLAKSMLDDLLTKQDGGTSFSEDDMPMLNKIAQFMDDNPAQFPKPDSGSWVNELKEDNFLDGDETAAFRSALDIIGQQLGNQQSDAGSLAGTGGGLGTPSSFSNNSSVMGDPLIDANTGPGDSGNTRGEAGQLIGELIDRGLQSVLAGGGLGTPVNTPQTGTSANGGQSAQDLDQLLGGLLLKGLEATLKDAGQTGTDVQSSAAQIATLLVSTLLQGTRNQAAA
Consider B2, for which the “unfolding enthalpy (calorimetric)” value (Pseudomonas syringae pv. syringae, pH 7.5, Thermal, CD, Sodium phosphate 5mM) was 33.8 kcal/mol and 58.3 kcal/mol.

B3: Plastocyanin wild type, P00287 (protein)
chain: LEVLLGSGDGSLVFVPSEFSVPSGEKIVFKNNAGFPHNVVFDEDEIPAGVDAVKISMPEEELLNAPGETYVVTLDTKGTYSFYCSPHQGAGMVGKVTVN
Take B3: under setting [2], the denaturant m value worked out at 2.7 kcal/mol/M, the “denaturant midpoint” value was 2.1 M and the unfolding free energy was determined as 5.8 kcal/mol. Besides, under setting [3], the denaturant m value was found to be 2.5 kcal/mol/M, the “denaturant midpoint” value turned out to be 2.1 M and the unfolding free energy came out at 5.3 kcal/mol.

B4: Ribonuclease MC wild type, P23540 (protein)
chain: FDSFWFVQQWPPAVCSFQKSGSCPGSGLRTFTIHGLWPQGSGTSLTNCPQGSPFDITKISHLQSQLNTLWPNVLRANNQQFWSHEWTKHGTCSESTFNQAAYFKLAVDMRNNYDIIGALRPHAAGPNGRTKSRQAIKGFLKAKFGKFPGLRCRTDPQTKVSYLVQVVACFAQDGSTLIDCTRDTCGANFIF
For the protein B4, under setting [4], the “denaturant midpoint” value came to 2.57 M and the unfolding free energy is 13.2 kcal/mol. Besides, the Tm (Momordica charantia, pH 7.5, Thermal, CD, Tris-HCl 10 mM, NaCl 200 mM) turned out to be 64.4 °C.

B5: Cytochrome b5 wild type, P00169 (protein)
chain: MAAQSDKDVKYYTLEEIKKHNHSKSTWLILHHKVYDLTKFLEEHPGGEEVLREQAGGDATENFEDVGHSTDARELSKTFIIGELHPDDRSKLSKPMETLITTVDSNSSWWTNWVIPAISALIVALMYRLYMADD
Regarding B5, the unfolding free energy (Oryctolagus cuniculus, pH 7.4, 25 °C, Thermal, DSC, sodium phosphate 50 mM, reversible: yes) amounted to 1.7 kcal/mol. Under setting [5], the Tm stood at 48.5 °C, the “heat capacity change of unfolding” value was found to be 1 kcal/mol/K and the “unfolding enthalpy (calorimetric)” value came out at 35.7 kcal/mol.

B6: wild type, P95467 (protein)
chain: MKKALIASTALLLTAGVAAADVKISGYGRTGVIYYENDSDVNESRVQSRLRMNIDASSSTDSGVDFGARFRLQWDQGEEGEAQTNAGKLWVSAQGFTVEVGNVDTAFASNGLIYETGLGSYDRSVGFSAVTGAFFAYDSNGYGIDEVDRVGIRALYTLGDLTLQASYVDPDQSGTVIGVEEEFGFSVDYTWNERLELSAAAAFNGAGIDGNDIYFLGARYAVMDNARIGLNFVDAGDEEDGYDGKTIALYGDYTLADGRTNLEAYIANNDRDSNETDNAFGIGVNYDLGGARLGASLQRDYAENVTADFGVRFEF
As to B6, the Tm runs as follows: (Paracoccus denitrificans, pH 1.5, Thermal, CD, Unknown, reversible: No) 78.5 °C; (Paracoccus denitrificans, pH 4, Thermal, CD, Unknown, reversible: No) 82.6 °C; (Paracoccus denitrificans, pH 8, Thermal, Absorbance, Tris-HCl 50 mM, NaCl 100 mM, reversible: no) 86.2 °C; (Paracoccus denitrificans, pH 8, Thermal, CD, Unknown, reversible: No) 86.2 °C; (Paracoccus denitrificans, pH 10, Thermal, CD, Unknown, reversible: No) 86.2 °C.

B7: Ig gamma-1 chain C region secreted form wild type, P01868 (protein)
chain: AKTTPPSVYPLAPGSAAQTNSMVTLGCLVKGYFPEPVTVTWNSGSLSSGVHTFPAVLQSDLYTLSSSVTVPSSPRPSETVTCNVAHPASSTKVDKKIVPRDCGCKPCICTVPEVSSVFIFPPKPKDVLTITLTPKVTCVVVDISKDDPEVQFSWFVDDVEVHTAQTQPREEQFNSTFRSVSELPIMHQDWLNGKEFKCRVNSAAFPAPIEKTISKTKGRPKAPQVYTIPPPKEQMAKDKVSLTCMITDFFPEDITVEWQWNGQPAENYKNTQPIMNTNGSYFVYSKLNVQKSNWEAGNTFTCSVLHEGLHNHHTEKSLSHSPGK
As for B7, the Tm worked out at 69.3 °C under setting [6], 69.5 °C under setting [7] and 70.2 °C under setting [8]. In addition, the “unfolding enthalpy (calorimetric)” value under setting [6] turned out to be 84 kcal/mol, the “unfolding enthalpy (calorimetric)” value under setting [7] was found to be 86.6 kcal/mol and the “unfolding enthalpy (calorimetric)” value under setting [8] amounted to 174 kcal/mol.

B8: Azurin wild type, P00282 (protein)
chain: MLRKLAAVSLLSLLSAPLLAAECSVDIQGNDQMQFNTNAITVDKSCKQFTVNLSHPGNLPKNVMGHNWVLSTAADMQGVVTDGMASGLDKDYLKPDDSRVIAHTKLIGSGEKDSVTFDVSKLKEGEQYMFFCTFPGHSALMKGTLTLK
Consider B8, for which, under setting [9], the denaturant m value was 4.18 kcal/mol/M, the “denaturant midpoint” value turned out to be 1.7 M and the unfolding free energy was 6.96 kcal/mol. The unfolding free energy (Pseudomonas aeruginosa (strain ATCC 15692 / DSM 22644 / CIP 104116 / JCM 14847 / LMG 12228 / 1C / PRS 101 / PAO1), pH 7.5, 40 °C, GdnHCl, Fluorescence, Tris Cl 2 mM, reversible: Yes) is 8.6 kcal/mol. Under setting [10], the Tm is 62 °C and the “unfolding enthalpy (calorimetric)” value was determined as 165 kcal/mol.

The values are drawn from FireProtDB.
